In patent US12319739 (F STAR DELTA, dated 2025):
Substitutions are numbered along the chain they refer to.

B1: FS22-172-003-AA/FS28-024 (bispecific antibody, human IgG1, kappa, L234A L235A, V domains shown)
VH: EVQLLESGGGLVQPGGSLRLSCAASGFTLSYSSMSWVRQAPGKGLEWVSFITPSTGYTHYADSVKGRFTISRDNSKNTLYLQMNSLRAEDTAVYYCARRALTFDYWGQGTLVTVSS
VL: EIVLTQSPGTLSLSPGERATLSCRASQSVSSSYLAWYQQKPGQAPRLLIYGASSRATGIPDRFSGSGSGTDFTLTISRLEPEDFAVYYCQQASSYPLTFGQGTKVEIKR
notes: IgG1 mAb^2 with LALA; also called FS28-024 in CD137 mAb^2 format
B2: FS22-172-003-AA/FS28-256 (bispecific antibody, human IgG1, kappa, L234A L235A, V domains shown)
VH: EVQLLESGGGLVQPGGSLRLSCAASGFTFTNTYMSWVRQAPGKGLEWVSNISPTYSTTNYADSVKGRFTISRDNSKNTLYLQMNSLRAEDTAVYYCARYNSYQGGLDYWGQGTLVTVSS
VL: B1 VL with A92S, S93Y, S94Y, L97I
notes: IgG1 mAb^2 with LALA
B3: FS22-172-003-AA/FS28-256-012 (bispecific antibody, human IgG1, kappa, L234A L235A, V domains shown)
VH: B2 VH with N31H, S75N, S101A, Q103H, G104A, G105A
VL: B1 VL with A92S, S93Y, S94Y, L97I
notes: IgG1 mAb^2 with LALA
B4: FS22-172-003-AA/FS28-024-051 (bispecific antibody, human IgG1, kappa, L234A L235A, V domains shown)
VH: B1 VH with T102I
VL: B1 VL
notes: IgG1 mAb^2 with LALA
B5: FS22-172-003-AA/FS28-024-053 (bispecific antibody, human IgG1, kappa, L234A L235A, V domains shown)
VH: B1 VH with T102V
VL: B1 VL
notes: IgG1 mAb^2 with LALA
B6: FS22-172-003-AA/FS28-256-014 (bispecific antibody, human IgG1, kappa, L234A L235A, V domains shown)
VH: B2 VH with N31D, S101A, Q103A, G104A
VL: B1 VL with A92S, S93Y, S94Y, L97I
notes: IgG1 mAb^2 with LALA
B7: FS22-172-003-AA/FS28-256-005 (bispecific antibody, human IgG1, kappa, L234A L235A, V domains shown)
VH: B2 VH with N31E
VL: B1 VL with S93L, S94G, L97H
notes: IgG1 mAb^2 with LALA
B8: FS22-172-003-AA/FS28-256-018 (bispecific antibody, human IgG1, kappa, L234A L235A, V domains shown)
VH: B2 VH with N31Q, S101A, G104I
VL: B1 VL with A92S, S93Y, S94Y, L97I
notes: IgG1 mAb^2 with LALA
B9: FS22-172-003-AA/FS28-185 (bispecific antibody, human IgG1, kappa, L234A L235A, V domains shown)
VH: EVQLLESGGGLVQPGGSLRLSCAASGFTFTTSAMSWVRQAPGKGLEWVSRINPYEGETNYADSVKGRFTISRDNSKNTLYLQMNSLRAEDTAVYYCARGWSIATYYKSAMDYWGQGTLVTVSS
VL: EIVLTQSPGTLSLSPGERATLSCRASQSVSSSYLAWYQQKPGQAPRLLIYGASSRATGIPDRFSGSGSGTDFTLTISRLEPEDFAVYYCQQSSYSAPVTFGQGTKVEIKR
notes: IgG1 mAb^2 with LALA; also called FS28-185 in CD137 mAb^2 format

What was measured:
hMSLN-His-Avi [1] = target: T1, hMSLN-His-Avi (human, UniProt Q13421 296-598, single biotin on the Avi tag in the biotinylated form); experiment: ratio of SPR KDs
T1 construct: Monomeric; also called human MSLN-His-Avi; hMSLN-Avi-His
Method: (§1) 7.1 Binding of CD137/MSLN mAb2 to Human MSLN Under Avid Conditions—Antigen Capture Method Binding of all mAb^2 to MSLN immobilised on a BIAcore chip was tested to determine the binding affinity to human MSLN under avid conditions, where a high concentration of immobilised antigen is available to allow the antibody to bind avidly. […] The association time was 5 min and the dissociation time was 10 min. Running buffer was HBS-EP (GE Healthcare BR100188). Flow cells were regenerated by injecting Glycine-HCl pH1.5 at a flow rate of 30 μl/min for 30 seconds. Data were analysed by double referencing against a flow cell which was intentionally left blank (no antigen coating). The binding kinetics were fitted with a 1:1 Langmuir model to generate binding association (k_a) and dissociation (k_d) rates. Equilibrium binding constants (K_D) were calculated by dividing the dissociation rate by the association rate for each sample. Data analysis was performed with BiaEvaluation software version 3.2.
(§2) The association time was 5 min and the dissociation time was 5 min. Running buffer was HBS-EP (GE Healthcare BR100188). Flow cells were regenerated by injecting Glycine-HCl pH2.1 at a flow rate of 30 μl/min for 15 seconds. The data was analysed as described in Example 7.1.

[2] = target: human CD137 on primary human CD8+ T cells (human, UniProt Q07011 24-255); experiment: cell-based or functional assay
[3] = target: T2, endogenous cell surface human MSLN (human, UniProt Q13421 296-598); experiment: flow cytometry, NCI-H226 cells
T2 construct: whole, on cells; The cell line is named under assay; also called cell-surface MSLN on NCI-H226, OVCAR-3 and AsPC-1 cells
Method: (§3) To confirm binding to cell surface MSLN, mAb² listed in Table 9 were analysed for binding to endogenous cell surface MSLN on the human lung cancer cell line NCI-H226. In addition, and because MSLN can be found in blood in a shed soluble form, there is a risk that this circulating MSLN might affect exposure and ultimately potency of our mAb². To confirm that presence of soluble MSLN has minimal impact, additional binding experiments to NCI-H226 cells were performed in the presence of 20 nM soluble MSLN which is 10-20 times the level of soluble MSLN found to be of diagnostic value for defining malignant mesothelioma and lung cancer patients as MSLN positive (Cui et al., 2014). Briefly, NCI-H226 cells (ATCC CRL-5826) were harvested from T175 cell culture flasks using Accutase (Gibco, A11105-01).
(§4) In both cases, cells were centrifuged at 1200 rpm for 3 min and resuspended in ice cold FACS buffer made up of DPBS (Life Technologies, 14190169) and 1% BSA (Sigma-Aldrich, A7906) at 2×10⁶ cells/ml and 50 μl per well was seeded in a 96-well V-bottom plate (Costar, 3894). All antibodies tested were diluted in FACS buffer in 120 μl at a concentration range of 0.01-200 nM (4-fold dilutions). The NCI-H226 cells were then centrifuged, supernatant removed and cells resuspended in 100 μl of each mAb dilution and incubated at 4° C. for 45 min. Cells were washed twice by centrifugation with 150 μl FACS buffer, resuspended in 100 μl containing goat anti-human IgG (γ-chain specific) F(ab')2 fragment-R-Phycoerythrin antibody (Sigma, P8047) diluted 1:1000 in FACS buffer and incubated at 4° C. for 45 min. The cells were washed once with 150 μl FACS buffer and then with 150 μl DPBS, resuspended in 150 μl DPBS containing DAPI (Biotium, 40043) at 1:10.000 and read on the BDCantoII or iQue (Intellicyt).

[4] = target: T2, endogenous cell surface human MSLN; experiment: flow cytometry, NCI-H226 cells + 20 nM soluble MSLN
Method: as §3, §4

hMSLN-His-Avi [5] = target: T1, hMSLN-His-Avi; experiment: SPR, hMSLN-His-Avi immobilised ~100 RU, mAb2 injected
Method: as §1

cMSLN-His-Avi = target: T3, cMSLN-His-Avi (cynomolgus, single biotin on the Avi tag in the biotinylated form); experiment: SPR, mAb2 captured on Protein G, cMSLN-His-Avi in solution
T3 construct: Monomeric; also called cyno MSLN-His-Avi; cMSLN-Avi-His
T3 chain: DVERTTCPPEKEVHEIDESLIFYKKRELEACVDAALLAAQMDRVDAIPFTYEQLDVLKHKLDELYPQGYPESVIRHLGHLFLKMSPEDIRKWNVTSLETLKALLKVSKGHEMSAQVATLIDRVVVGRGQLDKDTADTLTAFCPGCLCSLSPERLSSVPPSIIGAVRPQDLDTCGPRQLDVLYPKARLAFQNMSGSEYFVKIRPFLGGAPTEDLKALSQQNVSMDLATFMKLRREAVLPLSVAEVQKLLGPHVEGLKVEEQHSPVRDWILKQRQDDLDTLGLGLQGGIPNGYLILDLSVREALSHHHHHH
Method: as §2

hMSLN-His-Avi [6] = target: T1, hMSLN-His-Avi; experiment: SPR, mAb2 captured on Protein G, hMSLN-His-Avi in solution
Method: as §2

T1 sequence (Q13421 other isoform, or with tags, fused parts or gaps): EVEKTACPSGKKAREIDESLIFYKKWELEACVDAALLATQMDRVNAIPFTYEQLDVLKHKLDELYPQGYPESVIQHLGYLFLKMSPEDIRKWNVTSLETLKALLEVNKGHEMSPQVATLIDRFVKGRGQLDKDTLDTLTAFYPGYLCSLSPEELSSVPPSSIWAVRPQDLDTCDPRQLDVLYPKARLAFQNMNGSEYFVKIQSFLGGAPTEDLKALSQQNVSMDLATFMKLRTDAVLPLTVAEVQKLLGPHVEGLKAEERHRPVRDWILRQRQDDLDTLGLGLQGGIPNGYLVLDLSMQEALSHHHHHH
human CD137 on primary human CD8+ T cells, sequence (Q07011 24-255): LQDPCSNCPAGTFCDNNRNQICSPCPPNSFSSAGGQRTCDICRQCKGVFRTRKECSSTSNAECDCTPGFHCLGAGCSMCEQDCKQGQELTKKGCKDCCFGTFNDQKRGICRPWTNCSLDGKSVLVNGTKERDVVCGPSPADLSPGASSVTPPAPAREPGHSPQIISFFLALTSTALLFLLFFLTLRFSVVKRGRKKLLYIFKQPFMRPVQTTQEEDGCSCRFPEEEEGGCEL
T2 sequence (Q13421 other isoform, or with tags, fused parts or gaps limits assumed): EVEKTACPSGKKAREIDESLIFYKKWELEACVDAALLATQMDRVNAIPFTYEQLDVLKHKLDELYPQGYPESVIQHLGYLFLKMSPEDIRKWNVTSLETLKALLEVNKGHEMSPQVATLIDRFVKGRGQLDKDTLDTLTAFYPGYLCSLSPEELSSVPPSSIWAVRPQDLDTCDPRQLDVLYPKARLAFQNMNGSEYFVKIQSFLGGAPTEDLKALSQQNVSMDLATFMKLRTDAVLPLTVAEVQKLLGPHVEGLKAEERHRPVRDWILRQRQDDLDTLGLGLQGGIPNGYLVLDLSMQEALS

Binder	KD ratio in solution/immobilised human MSLN (hMSLN-His-Avi [1])	Emax (IL-2 pg/ml), NCI-H226 co-culture, Donor A [2]	Emax (IL-2 pg/ml), NCI-H226 co-culture, Donor B [2]	IL-2 release EC50, NCI-H226 co-culture, Donor A [2]	IL-2 release EC50, NCI-H226 co-culture, Donor B [2]	EC50 [3]	Emax (MFI) [3]	EC50 [4]	Emax (MFI) [4]	Kd (hMSLN-His-Avi [5])	Kd (cMSLN-His-Avi)	Kd (hMSLN-His-Avi [6])
B1	119	1120 pg/mL	1380 pg/mL	0.02 nM	0.03 nM	0.389 nM	773000 MFI	3.05 nM	792000 MFI	0.39 nM	170 nM	46.5 nM
B2	34	1260 pg/mL	8590 pg/mL	34 nM	22.2 nM	47.1 nM	174000 MFI	52.9 nM	200000 MFI	36 nM	848 nM	1210 nM
B3	259	1550 pg/mL	1100 pg/mL	1.56 nM	1.67 nM	5.7 nM	516000 MFI	6.36 nM	486000 MFI	3.12 nM	712 nM	809 nM
B4	105	1130 pg/mL	1800 pg/mL	0.08 nM	0.04 nM	0.477 nM	768000 MFI	3.06 nM	798000 MFI	0.4 nM	153 nM	42.4 nM
B5	111	1010 pg/mL	1440 pg/mL	0.07 nM	0.04 nM	0.579 nM	783000 MFI	2.77 nM	788000 MFI	0.42 nM	166 nM	46.4 nM
B6		1360 pg/mL		3.58 nM		0.727 nM	476000 MFI	1.09 nM	514000 MFI			
B7		1100 pg/mL		1.63 nM		0.729 nM	441000 MFI	0.856 nM	424000 MFI			
B8		1260 pg/mL	903 pg/mL	3.22 nM	3.71 nM	3.6 nM	348000 MFI	4.09 nM	357000 MFI			
B9	5					22.9 nM	4930 MFI	28.4 nM	4930 MFI	50.5 nM	294 nM	248 nM
